The target of one experiment is mɑAXL (mouse). Briefly: SPR. (Surface plasmon resonance follows binding to a sensor surface in real time, without labels.)
Experiment [1] concerns the target biotinylated lysozyme (GeneTex) (Gallus gallus (hen egg white), UniProt P00698, biotin). Briefly: flow cytometry on cells. In general terms: Flow cytometry measures light scatter and fluorescence of single cells or particles in a stream.
Experiment [2] concerns the target hen-egg white lysozyme (Sigma) (Gallus gallus (hen egg white), UniProt P00698). The experiment is described as follows: SPR.
Experiment [3] addresses human Quiescin Sulfhydryl Oxidase 1 (residues 34–546 of HsQSOX1) (human, UniProt O00391). The experiment is described as follows: enzyme inhibition.

Several values for one entry are separate records, joined by “and”; a condition that tells them apart may be missing. Equal values may be shown once.

Chain of hen-egg white lysozyme (Sigma) (P00698 19-147): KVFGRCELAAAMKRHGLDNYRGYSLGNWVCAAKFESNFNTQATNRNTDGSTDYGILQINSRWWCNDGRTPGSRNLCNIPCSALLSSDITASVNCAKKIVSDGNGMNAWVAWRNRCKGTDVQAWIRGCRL
Chain of human Quiescin Sulfhydryl Oxidase 1 (residues 34–546 of HsQSOX1) (O00391 34-546): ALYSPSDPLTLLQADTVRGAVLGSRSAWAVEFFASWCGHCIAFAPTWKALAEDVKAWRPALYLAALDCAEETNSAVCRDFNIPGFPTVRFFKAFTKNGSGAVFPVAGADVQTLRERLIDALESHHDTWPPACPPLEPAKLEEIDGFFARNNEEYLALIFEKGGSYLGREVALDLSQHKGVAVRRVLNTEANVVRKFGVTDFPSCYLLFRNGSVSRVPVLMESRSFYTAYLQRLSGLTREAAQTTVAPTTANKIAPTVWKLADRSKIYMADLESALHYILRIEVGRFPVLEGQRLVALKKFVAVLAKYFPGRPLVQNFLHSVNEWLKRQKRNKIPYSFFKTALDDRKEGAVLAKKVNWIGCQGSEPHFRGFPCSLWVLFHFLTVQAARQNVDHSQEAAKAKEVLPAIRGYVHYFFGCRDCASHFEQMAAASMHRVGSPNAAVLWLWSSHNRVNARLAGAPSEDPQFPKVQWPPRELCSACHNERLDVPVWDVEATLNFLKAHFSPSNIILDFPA
Chain of biotinylated lysozyme (GeneTex) (P00698 19-147): as the sequence (P00698 19-147) above

One may read the Kd as the constant that tells how readily two partners part at equilibrium. A low value points to higher affinity. The koff is the first-order rate constant of dissociation. Lower therefore signals slow dissociation. By kon is commonly meant a measure of how fast the partners come together. Low readings indicate slow association, high ones fast association. As for “AXL (R&D systems) (from UniProt P30530) (receptor)”, in the experiment with mɑAXL (mouse), the Kd worked out at 0.95 nM, the koff was found to be 0.000524 s⁻¹ and the kon worked out at 550000 M⁻¹ s⁻¹.

B1: CUMAb design 6 of D44.1 formatted as scFv (scFv, V domains shown)
VH: EVQLVQSGAEVKKPGATVKISCKVSGYTFSTYWMEWVQQAPGKGLEWMGEVLPGSGSTYYAEKFQGRVTITADTSTDTAYMELSSLRSEDTAVYYCARGDGYFQHWGQGTLVTVSS
VL: EIVLTQSPDFQSVTPKEKVTITCRASQSISSNLHWYQQKPDQSPKLLIKYASQSFSGVPSRFSGSGSGTDFTLTINSLEAEDAATYYCHQSNSWPRTFGPGTKVDIK
Turning to B1, the binding result in experiment [1] was “binds”.

B2: hɑHEWL Fab (design 1 as a human IgG1 Fab) (Fab, V domains shown)
VH: B1 VH
VL: DIQMTQSPSSLSASVGDRVTITCRASQSISSNLNWYQQKPGKAPKLLIYYASSLQSGVPSRFSGSGSGTDFTLTISSLQPEDFATYYCQQSNSWPRTFGPGTKVDIK
As to B2, in experiment [2], the Kd is 42 nM and 44 nM; the koff was 0.16 s⁻¹; the kon came out at 3.9e+06 M⁻¹ s⁻¹.

B3: murine monoclonal antibody mAb492.1 (antibody, V domains shown)
VH: QVQLKQSGPGLVAPSQSLSITCTVSGFSLTGYGVNWVRQSPGKGLEWLGMIWGDGRTDYKSALKSRLSITKDNSKSQVFLKMNSLQTDDTARYFCASDYYGSGSFAYWGQGTLVTVSA
VL: DVVMTQSHKFMSTSVGDRVSITCKASQDVSTAVAWYQQKSGQSPKLLIHSASYRYTGVPDRFTGSGSGTDFTFTISSVQAEDLAVYYCQQHYSIPLTFGAGTKLELK
On to B3, for which, in experiment [3], the binding result is recorded as “binds”.

The values above are taken from article doi:10.1101/2022.08.14.503891 (bioRxiv, 2022).
